1 protein from article PMC3368889 (Immunity, 2012) can be followed below.

The series deals with the molecule itself. The experiment in a line: SEC. On the technique in general: Size exclusion chromatography separates by hydrodynamic size, large species first.

B1: C-terminal fragment of human NLRX1 (residues 629-975) (domain or fragment, UniProt Q86UT6 629-975, looked up)
chain: GLLSAHNRAVLAQLGCPIKNLDALENAQAIKKKLGKLGRQVLPPSELLDHLFFHYEFQNQRFSAEVLSSLRQLNLAGVRMTPVKCTVVAAVLGSGRHALDEVNLASCQLDPAGLRTLLPVFLRARKLGLQLNSLGPEACKDLRDLLLHDQCQITTLRLSNNPLTAAGVAVLMEGLAGNTSVTHLSLLHTGLGDEGLELLAAQLDRNRQLQELNVAYNGAGDTAALALARAAREHPSLELLHLYFNELSSEGRQVLRDLGGAAEGGARVVVSLTEGTAVSEYWSVILSEVQRNLNSWDRARVQRHLELLLRDLEDSRGATLNPWRKAQLLRVEGEVRALLEQLGSSGS
What is called stoichiometry N is the number of molecules, sites or subunits per partner or assembly. As for B1, the “stoichiometry N” value was found to be 2.
